Experimental data published in article PMC6773797, “Identification and molecular characterization of a psychrophilic GH1 β-glucosidase from the subtropical soil microorganism Exiguobacterium sp. GXG2” (AMB Express, 2019).

Substrate: O=[N+]([O-])c1ccc(O[C@@H]2O[C@H](CO)[C@@H](O)[C@H](O)[C@H]2O)cc1
Assay: purified protein
Assay type: biochemical, Exiguobacterium sp. GXG2
Conditions: pH 7.0, 35 °C, 1–10 mM substrate

B1: BglG (Exiguobacterium sp. GXG2) (protein)
chain: MKMPKDFLFGAASASYQVEGAWNVDGKGVSNWDVFSKIPGKTFEATNGDVAIDHYHRYKEDIGLMAEMGLESYRFSISWPRIFPNGTGEVNEKGLEFYNNVIDECLKHGIVPFVTLYHWDLPQVLEEQGGWRSPETADAFVRFAKTCFEAFGDRVRNWITFNETVIFCSLGYLTGAHPPGITGDAKAYFQTTHNVFVAHARAVEAFKEAGYEGEIGITHVFNPAFSIDEAPENKQAEVHANEYATHWFYDPILKGEYPAYVVKDLEKQGLLPEWTEEELDLLKRTAPLNDFIGLNYYCPQRVMKNDSALVMAGGRENSTGRPGNPSFDGVYKTVLMDDKVYTKWGWEIAPDAFLEGMRMLQARYGDIKIYITENGLGDEDPIVGEEIMDTPRIEYIESHLRAVKRAVEEGINVSGYYAWSVIDLLSWLNGYKKQYGFIYVDHANGLARKKKQSFHWYQEIIATRAAEL
notes: six-histidine tag kept, about 58 kDa on SDS-PAGE; pETBlue-2, E. coli Tuner(DE3)pLacI; Ni-NTA purified
**Q.** For B1, which Km is on record?
**A.** The Km was 1100 µM.

**Q.** And the kcat?
**A.** The kcat was 12.7 s⁻¹.
